Source: the DeepSol protein solubility set

Assay: soluble on expression in E. coli; label from the status in PepcDB or PDB records

Question: For “MGSDKIHHHHHHMKPIKEIADQLELKDDILYPYGHYIAKIDHRFLKSLENHEDGKLILVTAVTPTPAGEGKTTTSIGLSMSLNRIGKKSIVTLREPSLGPTLGLKGGATGGGRSRVLPSDEINLHFTGDMHAVASAHNLLAAVLDSHIKHGNELKIDITRVFWKRTMDMNDRALRSIVIGLGGSANGFPREDSFIITAASEVMAILALSENMKDLKERLGKIIVALDADRKIVRISDLGIQGAMAVLLKDAINPNLVQTTEGTPALIHCGPFANIAHGTNSIIATKMAMKLSEYTVTEAGFGADLGAEKFIDFVSRVGGFYPNAAVLVATVRALKYHGGANLKNIHEENLEALKEGFKNLRVHVENLRKFNLPVVVALNRFSTDTEKEIAYVVKECEKLGVRVAVSEVFKKGSEGGVELAKAVAEAAKDVEPAYLYEMNDPVEKKIEILAKEIYRAGRVEFSDTAKNALKFIKKHGFDELPVIVAKTPKSISHDPSLRGAPEGYTFVVSDLFVSAGAGFVVALSGDINLMPGLPKKPNALNMDVDDSGNIVGVS”, which “soluble on expression in E. coli” value is on record?
Answer: Its value is “not soluble”.

Question: For “MGSDKIHHHHHHMKQIKHTFEEKKKMGGKASMWNLWHGCHKWSEGCRHCYVYRTDGKYGKDSSVVTKTEKFGLPLQKKKNGEYKIPSGNLVYTCFTSDFLIEDVDEWRAEAWEMMRIRQDLHFMFITKRIDRLQQCLPPDWGDGYDNVTICCTMENQDRVDYRLPIYKESPIKHKIIICEPLLSQIDFRGELEGWVEQVVAGGESGKEARVCNYDWVLDIRRQCVEAHVGFWFKQTGSYLLKDGHEYKVARQFQHSQARKAELNYTPEK”, which “soluble on expression in E. coli” value is on record?
Answer: Its value is “not soluble”.

Question: With “MGSDKIHHHHHHMKQLILFLLCLSTWTAQAKIYNVKDYGAKADGTTIDSPAINRAIEEAASQGGGTVYFPAGEYACYSIRLASHIHLYIEQGARIVGAFPSATEGYDPAEPNEHTQFQDFGHSHWKNSLIWGIGLEDITISGPGLIYGKGLTREESRLPGVGNKAISLKLCKNVTLKDFSLLHCGHFGLLATGVDNLSILNVKVDTNRDGFDIDCCKNVRISHCTVNAPWDDAIVLKASYGLGYFKDTENVTISDCFVSGYDRGSVLDCTWQRDEPQAPDHGFVTGRIKLGTESSGGFKNIAITNCIFERCRGLALETVDGGKLEDIVISNITMRDIVNAPIFLRLGARMRSPQGTPVGTMKRILISHVNVFNADSRYSSIISGIPGALIEDVTLSDIHIYHQGGYTEADGLLTPPEQEKVYPEPWMFGTIPAKGFYIRHARNITLDNVNFHYEKADGRPLFVTDDASDIRYRNITVDGKEFNTAN” as the sequence, how does the “soluble on expression in E. coli” value read?
Answer: Its value is “not soluble”.

Question: For “MGSDKIHHHHHHMKRARIIYNPTSGREIFKKHLAQVLQKFEQAGYETSTHATTCAGDATHAAKEAALREFDLIIAAGGDGTINEVVNGLAPLDNRPTLGVIPVGTTNDFARALGIPREDILKAADTVINGVARPIDIGQVNGQYFINIAGGGRLTELTYDVPSKLKTMLGQLAYYLKGMEMLPSLRPTEVEIEYDGKLFQGEIMLFLVTLTNSVGGFEKLAPDSSLNDGMFDLMILKKANLAEFIRVATMALRGEHINDQHIIYTKANRVKVNVSEKMQLNLDGEYGGMLPGEFVNLYRHIHVVMPKEKAEQLDD”, which “soluble on expression in E. coli” value is on record?
Answer: Its value is “not soluble”.

Question: For “MGSDKIHHHHHHMKRAVVVFSGGQDSTTCLIQALQDYDDVHCITFDYGQRHRAEIEVAQELSQKLGAAAHKVLDVGLLNELATSSLTRDSIPVPDYDANAQGIPNTFVPGRNILFLTLASIYAYQVGAEAVITGVCETDFSGYPDCRDEFVKALNQAIVLGIARDIRFETPLMWLNKAETWALADYYQQLDTVRYHTLTCYNGIKGDGCGQCAACHLRANGLAQYQKDAATVMASLKQKVGLR”, which “soluble on expression in E. coli” value is on record?
Answer: The value was “not soluble”.

Question: Which “soluble on expression in E. coli” value does the source give for “MGSDKIHHHHHHMKRCPNCGCRGQAAFPEHVPGQVQYGPRLHAFTTLLNVGHFIPLERVTQLTDALFGASISDGTVALNINLASERLEPFEDDLKTGLRQQAVLHADETGAKVNGKLNWFHVACFARGTLYTLHEKRGYAALEAAGVLTDFTGVVVHDAWSTYFRLPGEHALCNAHLLRELRKLDEHDRQPWAGELRRALQQVYHAQKTGTLTDEQRAVFYTRFDELVLAGLEANPVQEPVPKRRGKPKQLPGRNLALRCQQHRAAMLLFLERADVPFDNNQAERDIRMACVKRKVSGGFRSEVGGQAFCRVRSFISTLQKQGLSVWTGLVDVFRGVLPKLDFSC” here?
Answer: Its value is “not soluble”.

Question: Which “soluble on expression in E. coli” value does the source give for “MGSDKIHHHHHHMKRIGIIAAWQPELNYLHEEYPSRKVRKIAAWEFHYHSINNLEIISVISGVGKTNCSSCTQLLISEFRPDEIYMTGICGSLSDSIKGGEIVIARQMLQHDVTNAGKGDDVWDLYTGRTSIIDGDNSIFSDFLNFAINTSEHKINNGMFISGDQRIREDVLRSSLSSTHNAIAVDQEIASFSYVSYVNKIPFLCVKSVSDQADNKTIEDQKRFKLLACENSCKLLIEFLLR” here?
Answer: Its value is “not soluble”.

Question: With “MGSDKIHHHHHHMKRLIGCVLLFLGASLYGCGGQGEDPETIVSEKPIEEWDDEEEDGGEWTVPDIDLSNFRHDPTEWGENVTGVKTKLDTKEQVIALTLDACGGPHGSQFDEELLAYLQEKEIPATLFVNERWIDENEDVFLSLANNPLFQIENHGSAHKPLSVNGRNAWNIEGTKSPEEVVNEITNNQQRIYQLTGRSTRLFRSGTAFYDEVAVEIANALGVEVVNYSVLGDAGATFTAEQVKAALLNAEPGAIVLMHMNQPASGTAAGVKAAIPLLIEKGYTFARLDEYDLT” as the sequence, how does the “soluble on expression in E. coli” value read?
Answer: Its value is “not soluble”.

Question: For “MGSDKIHHHHHHMKRSIEDTPVVFLGAGNLATNLAKALYRKGFRIMQVYSRTEESARTLANEVEAEYITDLKDVSNEARLYIISLKDAAFVELLPQITDGKQHALLVHTAGSIPMNIWEGHAERYGVFYPMQTFSKQREVDFREVPFFIEAKRPEDTELLKAVAGTLSDKVYEADSEQRRSLHLAAVFTCNFTNHMYALAAELLEKYHLPFDVMLPLIDETARKVHELAPRDAQTGPAVRYDENVMNKHLSMLADSQALQEIYKLMSKSIHEHHQL”, which “soluble on expression in E. coli” value is on record?
Answer: Its value is “not soluble”.

Question: With “MGSDKIHHHHHHMKSELFYRKLEKCDLCPRNCGVNRLMGEKGACGVANSPVVSSWGPHFGEERILVGRGGSGTVFFTYCNLKCVYCQNYEISQLGIGKEITVEDLLRIFTELQDMGVENLNLVTPTHQIPFIVDAFERMEKEIPVVYNCGGYESVDTIISLEGFVDIYMPDFKYSDPELGEKLSGVKDYPRFALEALKVMIDQMGEPVIRNGVMKKGVLVRHLVLPGFLEDSFGVIDLLSTLEPKPLVNIMAQFYPAYRAKEYGLDRFITRDEYLKVVEYAKKKKLNLIEVERWLRWL” as the sequence, how does the “soluble on expression in E. coli” value read?
Answer: Its value is “not soluble”.

Question: With “MGSDKIHHHHHHMKSFDEMTPKEIVQELDKYIVGQYEAKKAVAIAVRNRIRRQKLPEEWRKEVLPKNILMIGPTGVGKTEIARRLAQLSGSPFLKVEATRFTEVGYVGKNVDSMIRDLVEISVNMVKQEKIKEVERQAEELVEERILDALVPESKAMPVVTNPFINLITGGQQQQYTPEDRRRFRAKREEMREKLRKGELEDEEIEIELEETVSPFMGIFGPGMEDLGIEITNMFSGMLPKRKKKRKMKVSEARKVLLPLEAEKLIDMDKVVQEALDRAQNRGIIFIDEIDKIAGKESAVGPDVSRQGVQRDLLPIVEGTTIMTKYGPVRTDFILFIAAGAFHVSRPSDLIPELQGRFPIRVELSPLTEEDFVRILKEPENAIIKQYQALLSTEGVELVFTEDGIREMARIAYQLNQRLENIGARRLYTVAEKVLEEISFEAPDIPEKRVVVDAEYVRRRLEKIVQDEDLSAYIL” as the sequence, how does the “soluble on expression in E. coli” value read?
Answer: Its value is “not soluble”.

Question: Which “soluble on expression in E. coli” value does the source give for “MGSDKIHHHHHHMKSKNLSPYIKYIELDRVRVPSFSRYPFHLPAVRNLDTLALHPKVTFLVGENGSGKSTILEAIAVAYGFNAEGGTKNFNFSSRRTHSDLSDYVKVVKGTRTPRNGFFLRAESFYNFASNLDDLDSEMAFGPSLIDSYGGRSLHEQSHGESFFAVFLNRFSGDGVYILDEPEAALSPSRQMSMLSRMHELVGEGAQFIIATHSPIIMAYPDALIYQIADDIEQVGYQETEHYRITRAFLNHPQKMLKLLLE” here?
Answer: Its value is “not soluble”.

Question: For “MGSDKIHHHHHHMKSLLAIYPGSIVSEELCIREGCLCFFDESNQRYISIPKTEISEKEVLVLQSFLTPADEGNQLSMKSPEENKWFSFLFSRGELPAYIKKRTRFVHFHLFGKIERTSFTEAVRHFWPVSFVIVWIHEDRGVIVEQESEAAAEKDELESLAKVLESDFYFSVRFYAGRFYEPDECLRKHYAREQAYFLFAEKRLPQVQSVTFEMIFPFLLLETEKEKLETLLSEEAELLFGSESELRKTIKLFIENNSNVTLTAKKLHLHRNSLQYRIDKFIERSGIDIKSYKGALLAYFICLQNESSE”, which “soluble on expression in E. coli” value is on record?
Answer: The value was “not soluble”.

Question: For “MGSDKIHHHHHHMKSNVVVKYPVNSELANYAEKFWKKELAIYNLSLILNKMTPFVKRRSESYKSSLSAVKEIFKNVDDFQNFLNSVLRRSLDEYRVFFENYERLFNSFSSKIFSMRTKSRLVVGLGDESVYETSIRLHRNYGVPYIPGSALKGVAKHYAFSILARENGDEILRIYESVKEDLKARIAKRDKIKKNDVPEDYYLTAAVIQELFEKKFDELGAIRNTRVEIGDTVISVGDIVKIFGTQKEEGSVIFFDAFPTPEQLKDKPNLELDIMNPHYQPYYQHGEPPGDWHSPNPIFFLTVPAGVEFTFAVASRDLDDLAEKAEKLLKEALKKFGVGAKTSLGYGRFDARDDR”, which “soluble on expression in E. coli” value is on record?
Answer: Its value is “not soluble”.

Question: For “MGSDKIHHHHHHMKTITTWQNNIQIVKDATNIVEISKGFSPDKKYIVTTIDEEKYLLRIGDIQEYERRKIEFQILNEMVKRNVQAQRPIEIGILEEEGVCYSIFSYLEGEDAKKLLPTYSPKKQYEIGIEAGKDLAKMHTYEAPNDTLPWYERAMKKHQKYVEAYKTCGIKIKNDDKIIKFIDENEMYLQNRPNQFQHDDFHLENIIVRDGKYVGVVDFNGYDWGDPLHDFVKIALFARDISIPYSIGQIEGYFNGRIPEEFWKLYAVYVGMTVFSSVVWTLRAAPHMLDDTLERLTVVLEDHKDFELLKPIWFQPEKIDIKK”, which “soluble on expression in E. coli” value is on record?
Answer: Its value is “not soluble”.

Question: For “MGSDKIHHHHHHMKTKVAAIYGKRDVRLRVFELPEITDNELLVSVISDSVCLSTWKAALLGSEHKRVPDDLENHPVITGHECAGVIVEVGKNLTGKYKKGQRFVLQPAMGLPSGYSAGYSYEYFGGNATYMIIPEIAINLGCVLPYHGSYFAAASLAEPMCCIIGAYHANYHTTQYVYEHRMGVKPGGNIALLACAGPMGIGAIDYAINGGIQPSRVVVVDIDDKRLAQVQKLLPVELAASKGIELVYVNTKGMSDPVQMLRALTGDAGFDDIFVYAAVPAVVEMADELLAEDGCLNFFAGPTDKNFKVPFNFYNVHYNSTHVVGTSGGSTDDMKEAIALSATGQLQPSFMVTHIGGLDAVPETVLNLPDIPGGKKLIYNGVTMPLTAIADFAEKGKTDPLFKELARLVEETHGIWNEQAEKYLLAQFGVDIGEAAQ”, which “soluble on expression in E. coli” value is on record?
Answer: The value was “not soluble”.

Question: For “MGSDKIHHHHHHMKTRQEALDYGLSFPNTYQEAPFHDPNWQLIRVKDSKKVFLWTYERNGFINLNVKVSPAWRDFWRDAFPSVIPGWHQNKDNWNTIILDGSIPDDAIKNMISDSYDLVTYNPTRLIYEAVKRIPKGCVATYAQVAELAGNKKMCRAVGNALHKNPNPDEIPCYRVVNAKGELSGAFAFGGADEQANRLRADGIEVIDGRVDLDKYGIRIVDDVIYTKTTVEPLT”, which “soluble on expression in E. coli” value is on record?
Answer: The value was “not soluble”.

Question: For “MGSDKIHHHHHHMKTSPRSNRLHIALFGKRNSGKSSLINALTNQNAALVSDIAGTTTDPVYQPMEIHGIGPCVFIDTAGFDDEGELGSLRIERTLQAADKADIALMVCCDTELSEEQRWIELLKERNIPYLLVLNKADLLEKPDEVADKLEQQTGQHPLIVSAKEKTGIDSIRQSILHRLPELNEQPDIVGDLANEGDVVLLVMPQDIQAPKGRLILPQVQTLRELLDKKCITLSCTTDQLDNALKALSVPPSLIITDSQVFRTVYEKKPPQSRLTSFSVLFARYKGDIDYYTEGAYIIDQLTENSRVLIAEACTHAPLSEDIGRVKLPRMLRKRIGEKLHIDIVSGNDFPKDLNCYDLIIHCGACMFNRKHVLNRIVKAKAQGVPMTNYGIVIAYINGIPFH”, which “soluble on expression in E. coli” value is on record?
Answer: The value was “not soluble”.
